From patent US20090291081A1 (AbbVie / Abbott, published 2009)
Positions count from the first letter of the chain named.

T1: human IL-1α (human, UniProt P01583 113-271)
T1 sequence (looked up): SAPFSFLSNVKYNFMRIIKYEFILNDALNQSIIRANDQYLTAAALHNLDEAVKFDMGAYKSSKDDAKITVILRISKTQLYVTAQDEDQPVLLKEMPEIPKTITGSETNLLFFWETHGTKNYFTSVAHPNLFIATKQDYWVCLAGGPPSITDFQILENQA

B1: ABT1-141-43 (other)
VL: DIQMTQSPSSLSASVGDRVTITCRASQWIQKQLAWYQQKPGKAPKLLIYSSSYLQSGVPPRFSGSGSGTDFTLTISSLQPEDFATYYCQQHLRVPMTFGQGTKVEIKR
notes: VK dAb
B2: ABT1-141-79 (other)
VL: B1 VL with S26N, Y49F, Y53H, P60S
notes: VK dAb
B3: ABT1-141-76 (other)
VL: B1 VL with S26N, Y53H, P60S
notes: VK dAb
B4: ABT1-141-47 (other)
VL: B1 VL with S26N, Y53H, P60S, E81Q
notes: VK dAb
B5: ABT1-141-48 (other)
VL: B1 VL with Y49F, Y53H, P60S, T85S
notes: VK dAb
B6: ABT1-141-70 (other)
VL: B1 VL with Y53H, P60S, S67Y
notes: VK dAb
B7: ABT1-141-49 (other)
VL: B1 VL with Q38L, Y53H, L54S, P60S
notes: VK dAb
B8: ABT1-141-45 (other)
VL: B1 VL with P60S, P80L, F98L
notes: VK dAb
B9: ABT1-141-77 (other)
VL: B1 VL with S26N, Y49F, Y53H, P60S, E81Q
notes: VK dAb
B10: ABT1-141-80 (other)
VL: B1 VL with S26N, Y53H, P60S, S67Y
notes: VK dAb
B11: ABT1-141-51 (other)
VL: B1 VL with A43V, P60S, Q79E, E105V
notes: VK dAb
B12: ABT1-141-78 (other)
VL: B1 VL with S26N, Y53H, P60S, S67Y, E81Q
notes: VK dAb
B13: ABT1-141-50 (other)
VL: B1 VL with A43T, P60S, K103N
notes: VK dAb
B14: ABT1-141-53 (other)
VL: B1 VL with Q38L, A43T, Y49F, P60S
notes: VK dAb
B15: ABT1-148 (other)
VL: DIQMTQSPSSLSASVGDRVTITCRASQSISSYLNWYQQKPGKAPKLLIGALSGLQSGVPSRFSGSGSGTDFTLTISSLQPEDFATYYCMQWYRHPSTFGQGTKVEIKR
notes: VK dAb
B16: ABT1-158 (other)
VL: DIQMTQSPSSLSASVGDRVTITCRASRSIGRGLNWYQQKPGKAPKLLIGGWSGLQSGVPSRFSGSGSGTDFTLTISSLQPEDFATYYCAQASPLPTFGQGTKVEIKR
notes: VK dAb
B17: ABT1-6-15 (other)
VH: EVQLLESGGGLVQPGGSLRLSCAASGFTFVRYDMAWVRQAPGKGLEWVSSINKSGALTSYADSVKGRFTISRDNSKNTLYLQMNSLRAEDTAVYYCAKGWASFDYWGQGTLVTVSS
notes: VH dAb
B18: ABT1-6-3 (other)
VH: B17 VH with V30G, R31A, A35Q, N52Y
notes: VH dAb
B19: ABT1-6 (other)
VH: B17 VH with V30G, R31A, A35Q
notes: VH dAb
B20: ABT1-95-148 (other)
VL: DIQMTQSPSSLSASVGDRVTITCRASQTIVRNLRWYQQKPGKAPKLLIYSSSYLEPGVPSRFSGSGSGTDFTLTISSLQPEDFATYHCQQGYRWPVTFGQGTKVEIKR
notes: VK dAb
B21: ABT1-95-160 (other)
VL: B20 VL with T28P, R93V
notes: VK dAb
B22: ABT1-164 (other)
VL: DIQMTQSPSSLSASVGDRVTITCRASRPIAGNLRWYQQKPGKAPKLLIWGASSLQSGVPSRFSGSGSGTDFTLTISSLQPEDFATYYCVQGWQWPITFGQGTKVEIKR
notes: VK dAb
B23: ABT1-95-161 (other)
VL: B20 VL with T28P, V96P
notes: VK dAb
B24: ABT1-163 (other)
VL: DIQMTQSPSSLSASVGDRVTITCRASGNIVHNLRWYQQKPGKAPKLLIYAASRLQSGVPSRFSGSGSGTDFTLTISSLQPEDFATYYCAQGYEWPLTFGQGTKVEIKQ
notes: VK dAb
B25: ABT1-95-149 (other)
VL: B20 VL with T28A
notes: VK dAb
B26: ABT1-162 (other)
VL: DIQMTQSPSSLSASVGGRVTITCRASHYIRNRLHWYQQKPGKAPKLLIARGSALQSGVPSRFSGSGSGTDFTLTISSLQPEDFATYYCVQDGYLPPTFGQGTKVEIKR
notes: VK dAb
B27: ABT1-165 (other)
VL: DIQMTQSPSSLSASVGDRVTITCRASSSIRAGLAWYQQKPGKAPKLLIGPESGLQSGVPSRFSGSGSGTDFTLTISSLQPEDFATYYCGQGIDGPATFGQGTKVEIKR
notes: VK dAb
B28: ABT1-93 (other)
VH: EVQLLESGGGLVQPGGSLRLSCAASGFTFNEYNMVWVRQAPGKGLEWVSSISGGGGFTYYADSVKGRFTISRDNSKNTLYLQMNSLRAEDTAVYYCAKPLRGFVCSQHCSFDYWGQGTLVTVSS
notes: VH dAb
B29: ABT1-122-18 (other)
VL: DIQMTQSPSSLSASVGDRVTITCRASQPIWTELNWYQQKPGKAPKLLVYGSSSLQSGVPSRFSGSGSGTDFTLTISSLQPEDFATYYCQQFAYFPATFGQGTKVEIKR
notes: VK dAb
B30: ABT1-122-511 (other)
VL: B29 VL with V48I, S56R, Q89K
notes: VK dAb
B31: ABT1-122-21 (other)
VL: B29 VL with V48I, S60T
notes: VK dAb
B32: ABT1-161 (other)
VL: DIQMTQSPSSLSASVGDRVTITCRASHAITGSLRWYQQKPGKAPKLLISGGSVLQSGVPSRFSGSGSGTDFTLTISSLQPEDFATYYCAQWLGGPMTFGQGTKVEIKR
notes: VK dAb
B33: ABT1-92 (other)
VH: EVQLLESGGGLVQPGGSLRLSCAASGFTFSTYTMTWVRQAPGKGLEWVSTIFPGGSTTYYADSVKGRFTISRDNSKNTLYLQMNSLRAEDTAVYYCAKYVDFVKLSFDYWGQRTLVTVSS
notes: VH dAb
B34: ABT2-63 (other)
VL: DIQMTQSPSSLSASVGDRVTITCRASQSIRVFLSWYQQKPGKAPKLLIYNASYLQSGVPSRFSGSGSGTDFTLTISSLQPEDFATYYCQQRALYPTTFGQGTKVEIKR
notes: VK dAb
B35: ABT2-65-1 (other)
VH: EVQLLESGGGLVQPGGSLRLSCAASGFTFEDYQMGWVRQAPGKGLEWVSSISAMGNRTYYADSVKGRFTISRDDSKNTLYLQMKSLRAEDTAVYYCAQNLVRTQSKMWMFDYWGQGTLVTVSS
notes: VH dAb
B36: ABT2-65-18 (other)
VH: B35 VH with E30G, K84N, Q98E, R102Q, T103W, Q104R, S105I, K106G, M107A
notes: VH dAb
B37: ABT2-65-12 (other)
VH: B35 VH with E30R, D31E, Q33W, K84N, Q98N
notes: VH dAb
B38: ABT2-65-2 (other)
VH: B35 VH with E30S, D31T, Q33N, K84N, Q98N
notes: VH dAb
B39: ABT2-65-15 (other)
VH: B35 VH with E30G, D31I, K84N
notes: VH dAb
B40: ABT2-65-14 (other)
VH: B35 VH with S25P, E30P, D31Y, Q33P, K84N, Q98K
notes: VH dAb
B41: ABT2-65-16 (other)
VH: B35 VH with K84N, Q98E, R102K, T103W, Q104R, K106A, M107E
notes: VH dAb
B42: ABT2-65-9 (other)
VH: B35 VH with Q13H, E30R, D31W, Q33P, K84N, Q98E
notes: VH dAb
B43: ABT2-65-13 (other)
VH: B35 VH with E30R, D31E, K84N, Q98N
notes: VH dAb
B44: ABT2-65-11 (other)
VH: B35 VH with E30R, D31A, Q33P, K84N, Q98N
notes: VH dAb

Target: T1, human IL-1α
Experiment: cell-based or functional assay

Row | ND50 [nM] | Binder
1 | 5 | B1
2 | 2.4 | B2
3 | 1 | B3
4 | 1 | B4
5 | 1 | B5
6 | 1 | B6
7 | 5 | B7
8 | 100 | B8
9 | 1 | B9
10 | 1.7 | B10
11 | 20 | B11
12 | 0.7 | B12
13 | 20 | B13
14 | 10 | B14
15 | 100 | B15
16 | < 100 | B16
17 | 500 | B17

Row | ND50 [nM] | Binder
18 | 60 | B18
19 | 3000 | B19
20 | 0.19 | B20
21 | 0.238 | B21
22 | 14 | B22
23 | 0.5 | B23
24 | 105 | B24
25 | 0.064 | B25
26 | 6.2 | B26
27 | 1000 | B27
28 | 5000 | B28
29 | 7 | B29
30 | 18 | B30
31 | 100 | B31
32 | 8 | B32
33 | > 10000 | B33

Target: T1, human IL-1α
Experiment: Table 62 IC50; RBA presumed

Row | IC50 [nM] | Binder
34 | 3 | B1
35 | 3 | B2
36 | 1 | B3
37 | 1 | B4
38 | 3 | B5
39 | 1 | B6
40 | 3 | B7
41 | 100 | B8
42 | 3 | B9
43 | 3 | B10
44 | 10 | B11
45 | 3 | B12
46 | 10 | B13
47 | 50 | B14
48 | 400 | B15
49 | 2 | B16
50 | 200 | B17

Row | IC50 [nM] | Binder
51 | 80 | B18
52 | 3000 | B19
53 | 0.2 | B20
54 | 0.1 | B21
55 | > 1000 | B22
56 | 0.1 | B23
57 | 1000 | B24
58 | 0.2 | B25
59 | 1000 | B26
60 | > 1000 | B27
61 | > 10000 | B28
62 | 5 | B29
63 | 10 | B30
64 | 80 | B31
65 | > 1000 | B32
66 | > 10000 | B33

Target: T2, human IL-1β (human, UniProt P01584 117-269)
T2 construct: antigen of the ABT2 dAbs; also called hIL-1β; IL-1 beta
Experiment: IC50 column of Table 63; receptor binding assay presumed

Row | IC50 [nM] | Binder
67 | 1000 | B34
68 | 100 | B35
69 | 20 | B36
70 | 20 | B37
71 | 20 | B38
72 | 100 | B39
73 | 1000 | B40
74 | 200 | B41
75 | 100 | B42
76 | 20 | B43
77 | 50 | B44
